Data published in US20090312251.

B1: LATS1 (human cDNA, GenBank Accession No. NP-004681.1, Flag- or HA-tagged) (protein)
chain: MKRSEKPEGYRQMRPKTFPASNYTVSSRQMLQEIRESLRNLSKPSDAAKAEHNMSKMSTEDPRQVRNPPKFGTHHKALQEIRNSLLPFANETNSSRSTSEVNPQMLQDLQAAGFDEDMVIQALQKTNNRSIEAAIEFISKMSYQDPRREQMAAAAARPINASMKPGNVQQSVNRKQSWKGSKESLVPQRHGPPLGESVAYHSESPNSQTDVGRPLSGSGISAFVQAHPSNGQRVNPPPPPQVRSVTPPPPPRGQTPPPRGTTPPPPSWEPNSQTKRYSGNMEYVISRISPVPPGAWQEGYPPPPLNTSPMNPPNQGQRGISSVPVGRQPIIMQSSSKFNFPSGRPGMQNGTGQTDFMIHQNVVPAGTVNRQPPPPYPLTAANGQSPSALQTGGSAAPSSYTNGSIPQSMMVPNRNSHNMELYNISVPGLQTNWPQSSSAPAQSSPSSGHEIPTWQPNIPVRSNSFNNPLGNRASHSANSQPSATTVTAITPAPIQQPVKSMRVLKPELQTALAPTHPSWIPQPIQTVQPSPFPEGTASNVTVMPPVAEAPNYQGPPPPYPKHLLHQNPSVPPYESISKPSKEDQPSLPKEDESEKSYENVDSGDKEKKQITTSPITVRKNKKDEERRESRIQSYSPQAFKFFMEQHVENVLKSHQQRLHRKKQLENEMMRVGLSQDAQDQMRKMLCQKESNYIRLKRAKMDKSMFVKIKTLGIGAFGEVCLARKVDTKALYATKTLRKKDVLLRNQVAHVKAERDILAEADNEWVVRLYYSFQDKDNLYFVMDYIPGGDMMSLLIRMGIFPESLARFYIAELTCAVESVHKMGFIHRDIKPDNILIDRDGHIKLTDFGLCTGFRWTHDSKYYQSGDHPRQDSMDFSNEWGDPSSCRCGDRLKPLERRAARQHQRCLAHSLVGTPNYIAPEVLLRTGYTQLCDWWSVGVILFEMLVGQPPFLAQTPLETQMKVINWQTSLHIPPQAKLSPEASDLIIKLCRGPEDRLGKNGADEIKAHPFFKTIDFSSDLRQQSASYIPKITHPTDTSNFDPVDPDKLWSDDNEEENVNDTLNGWYKNGKHPEHAFYEFTFRRFFDDNGYPYNYPKPIEYEYINSQGSEQQSDEDDQNTGSEIKNRDLVYV
B2: LATS2 (human cDNA, GenBank Accession No. NP-055387.2, Flag- or HA-tagged) (protein)
chain: MRPKTFPATTYSGNSRQRLQEIREGLKQPSKSSVQGLPAGPNSDTSLDAKVLGSKDATRQQQQMRATPKFGPYQKALREIRYSLLPFANESGTSAAAEVNRQMLQELVNAGCDQEMAGRALKQTGSRSIEAALEYISKMGYLDPRNEQIVRVIKQTSPGKGLMPTPVTRRPSFEGTGDSFASYHQLSGTPYEGPSFGADGPTALEEMPRPYVDYLFPGVGPHGPGHQHQHPPKGYGASVEAAGAHFPLQGAHYGRPHLLVPGEPLGYGVQRSPSFQSKTPPETGGYASLPTKGQGGPPGAGLAFPPPAAGLYVPHPHHKQAGPAAHQLHVLGSRSQVFASDSPPQSLLTPSRNSLNVDLYELGSTSVQQWPAATLARRDSLQKPGLEAPPRAHVAFRPDCPVPSRTNSFNSHQPRPGPPGKAEPSLPAPNTVTAVTAAHILHPVKSVRVLRPEPQTAVGPSHPAWVPAPAPAPAPAPAPAAEGLDAKEEHALALGGAGAFPLDVEYGGPDRRCPPPPYPKHLLLRSKSEQYDLDSLCAGMEQSLRAGPNEPEGGDKSRKSAKGDKGGKDKKQIQTSPVPVRKNSRDEEKRESRIKSYSPYAFKFFMEQHVENVIKTYQQKVNRRLQLEQEMAKAGLCEAEQEQMRKILYQKESNYNRLKRAKMDKSMFVKIKTLGIGAFGEVCLACKVDTHALYAMKTLRKKDVLNRNQVAHVKAERDILAEADNEWVVKLYYSFQDKDSLYFVMDYIPGGDMMSLLIRMEVFPEHLARFYIAELTLAIESVHKMGFIHRDIKPDNILIDLDGHIKLTDFGLCTGFRWTHNSKYYQKGSHVRQDSMEPSDLWDDVSNCRCGDRLKTLEQRARKQHQRCLAHSLVGTPNYIAPEVLLRKGYTQLCDWWSVGVILFEMLVGQPPFLAPTPTETQLKVINWENTLHIPAQVKLSPEARDLITKLCCSADHRLGRNGADDLKAHPFFSAIDFSSDIRKQPAPYVPTISHPMDTSNFDPVDEESPWNDASEGSTKAWDTLTSPNNKHPEHAFYEFTFRRFFDDNGYPFRCPKPSGAEASQAESSDLESSDLVDQTEGCQPVYV

Key:
[1] = biological target: His-YAP-SA (recombinant hexahistidine-tagged YAP serine to alanine mutant, pET-15b)
[2] = biological target: YAP S127A mutant (human YAP, transfected, Flag- or HA-tagged)

Protein | in-vitro kinase assay, 32P-labeled YAP by autoradiography [1] | phosphorylation of YAP in co-transfected WW45-deficient keratinocytes (Western blot) [2]
B1 | markedly reduced levels of phosphorylation of YAP S127A mutant by LATS1/2 | 
B2 | markedly reduced levels of phosphorylation of YAP S127A mutant by LATS1/2 | only the S127A mutant was not phosphorylated by activated LATS2 in cells
